The values below come from article doi:10.1101/2023.06.22.546118 (bioRxiv, 2023).

Data set [1] concerns the molecule itself. Description: crystal structure.
Data set [2] deals with T1, HSV-1 UL31 full length (1-306) with R229L (SUP_UL31) (herpes simplex virus 1 (HSV-1), UniProt P10215 1-306, R229L).
T1 sequence: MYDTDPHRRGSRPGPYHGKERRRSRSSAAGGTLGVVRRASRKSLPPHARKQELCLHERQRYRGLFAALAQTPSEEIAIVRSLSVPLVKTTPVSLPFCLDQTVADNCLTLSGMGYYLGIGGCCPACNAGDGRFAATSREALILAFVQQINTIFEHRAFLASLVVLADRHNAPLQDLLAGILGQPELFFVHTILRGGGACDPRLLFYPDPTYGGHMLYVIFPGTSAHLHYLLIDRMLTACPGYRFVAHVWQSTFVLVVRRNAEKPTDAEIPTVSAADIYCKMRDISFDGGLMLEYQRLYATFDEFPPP
Briefly: cryo-EM structure.

Data set [3] concerns the molecule itself. Briefly: cryo-EM structure.
Data set [4] deals with T2, HSV-1 UL31 full length (1-306), wild type (herpes simplex virus 1 (HSV-1), UniProt P10215 1-306).
T2 sequence: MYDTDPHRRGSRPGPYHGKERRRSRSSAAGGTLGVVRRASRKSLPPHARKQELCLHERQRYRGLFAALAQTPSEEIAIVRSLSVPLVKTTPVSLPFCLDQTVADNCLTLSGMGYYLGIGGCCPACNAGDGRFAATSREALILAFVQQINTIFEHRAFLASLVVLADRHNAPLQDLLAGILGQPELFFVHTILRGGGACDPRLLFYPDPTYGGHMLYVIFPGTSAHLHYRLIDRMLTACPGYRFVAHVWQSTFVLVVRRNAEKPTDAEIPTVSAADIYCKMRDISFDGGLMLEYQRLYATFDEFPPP
Description: SEC. A general note: In gel filtration, larger molecules generally elute earlier.

In data set [5] the target is T1, HSV-1 UL31 full length (1-306) with …. Description: SEC.
The target in data set [6] is T2, HSV-1 UL31 full length (1-306), wild …. Briefly: cryo-EM structure.

B1: NEC185Δ50-SUP_(UL31) heterodimer (UL31 51-306 R229L with UL34 15-185) (complex)
chain 1: QELCLHERQRYRGLFAALAQTPSEEIAIVRSLSVPLVKTTPVSLPFCLDQTVADNCLTLSGMGYYLGIGGCCPACNAGDGRFAATSREALILAFVQQINTIFEHRAFLASLVVLADRHNAPLQDLLAGILGQPELFFVHTILRGGGACDPRLLFYPDPTYGGHMLYVIFPGTSAHLHYLLIDRMLTACPGYRFVAHVWQSTFVLVVRRNAEKPTDAEIPTVSAADIYCKMRDISFDGGLMLEYQRLYATFDEFPPP
chain 2: AFEGLVQRIRLIVPSTLRGGDGEAGPYSPSSLPSRCAFQFHGHDGSDESFPIEYVLRLMNDWAEVPCNPYLRIQNTGVSVLFQGFFHRPHNAPGGAITPERTNVILGSTETTGLSLGDLDTIKGRLGLDARPMMASMWISCFVRMPRVQLAFRFMGPEDAGRTRRILCRAA
A word on the stoichiometry N: it is the number of molecules, sites or subunits per partner or assembly. Turning to B1, the “stoichiometry N” value in data set [1] is 6.

B2: NEC185Δ50-DN_(UL34)/SUP_(UL31) heterodimer (UL31 51-306 R229L with UL34 15-185 D35A/E37A) (complex)
chain 1: QELCLHERQRYRGLFAALAQTPSEEIAIVRSLSVPLVKTTPVSLPFCLDQTVADNCLTLSGMGYYLGIGGCCPACNAGDGRFAATSREALILAFVQQINTIFEHRAFLASLVVLADRHNAPLQDLLAGILGQPELFFVHTILRGGGACDPRLLFYPDPTYGGHMLYVIFPGTSAHLHYLLIDRMLTACPGYRFVAHVWQSTFVLVVRRNAEKPTDAEIPTVSAADIYCKMRDISFDGGLMLEYQRLYATFDEFPPP
chain 2: AFEGLVQRIRLIVPSTLRGGAGAAGPYSPSSLPSRCAFQFHGHDGSDESFPIEYVLRLMNDWAEVPCNPYLRIQNTGVSVLFQGFFHRPHNAPGGAITPERTNVILGSTETTGLSLGDLDTIKGRLGLDARPMMASMWISCFVRMPRVQLAFRFMGPEDAGRTRRILCRAA
B2: the binding result in data set [1] is on record as “binds”.

B3: HSV-1 UL31 residues 51-306 with R229L (SUP_UL31), crystallization construct (domain or fragment)
chain: QELCLHERQRYRGLFAALAQTPSEEIAIVRSLSVPLVKTTPVSLPFCLDQTVADNCLTLSGMGYYLGIGGCCPACNAGDGRFAATSREALILAFVQQINTIFEHRAFLASLVVLADRHNAPLQDLLAGILGQPELFFVHTILRGGGACDPRLLFYPDPTYGGHMLYVIFPGTSAHLHYLLIDRMLTACPGYRFVAHVWQSTFVLVVRRNAEKPTDAEIPTVSAADIYCKMRDISFDGGLMLEYQRLYATFDEFPPP
Regarding B3, the binding result in data set [1] is reported as “binds”.

B4: HSV-1 UL34 residues 1-220 with D35A/E37A (DN_UL34) (domain or fragment)
chain: MAGLGKPYTGHPGDAFEGLVQRIRLIVPSTLRGGAGAAGPYSPSSLPSRCAFQFHGHDGSDESFPIEYVLRLMNDWAEVPCNPYLRIQNTGVSVLFQGFFHRPHNAPGGAITPERTNVILGSTETTGLSLGDLDTIKGRLGLDARPMMASMWISCFVRMPRVQLAFRFMGPEDAGRTRRILCRAAEQAITRRRRTRRSREAYGAEAGLGVAGTGFRARGD
Take B4: in data set [2], the binding result was “binds”.

B5: NEC220, wild-type soluble HSV-1 nuclear egress complex (UL31 1-306 with UL34 1-220) (complex)
chain 1: MYDTDPHRRGSRPGPYHGKERRRSRSSAAGGTLGVVRRASRKSLPPHARKQELCLHERQRYRGLFAALAQTPSEEIAIVRSLSVPLVKTTPVSLPFCLDQTVADNCLTLSGMGYYLGIGGCCPACNAGDGRFAATSREALILAFVQQINTIFEHRAFLASLVVLADRHNAPLQDLLAGILGQPELFFVHTILRGGGACDPRLLFYPDPTYGGHMLYVIFPGTSAHLHYRLIDRMLTACPGYRFVAHVWQSTFVLVVRRNAEKPTDAEIPTVSAADIYCKMRDISFDGGLMLEYQRLYATFDEFPPP
chain 2: MAGLGKPYTGHPGDAFEGLVQRIRLIVPSTLRGGDGEAGPYSPSSLPSRCAFQFHGHDGSDESFPIEYVLRLMNDWAEVPCNPYLRIQNTGVSVLFQGFFHRPHNAPGGAITPERTNVILGSTETTGLSLGDLDTIKGRLGLDARPMMASMWISCFVRMPRVQLAFRFMGPEDAGRTRRILCRAAEQAITRRRRTRRSREAYGAEAGLGVAGTGFRARGD
For B5, the binding result in data set [3] is reported as “binds”.

B6: NEC220-DN_(UL34)/SUP_(UL31) (UL31 1-306 R229L with UL34 1-220 D35A/E37A) (complex)
chain 1: MYDTDPHRRGSRPGPYHGKERRRSRSSAAGGTLGVVRRASRKSLPPHARKQELCLHERQRYRGLFAALAQTPSEEIAIVRSLSVPLVKTTPVSLPFCLDQTVADNCLTLSGMGYYLGIGGCCPACNAGDGRFAATSREALILAFVQQINTIFEHRAFLASLVVLADRHNAPLQDLLAGILGQPELFFVHTILRGGGACDPRLLFYPDPTYGGHMLYVIFPGTSAHLHYLLIDRMLTACPGYRFVAHVWQSTFVLVVRRNAEKPTDAEIPTVSAADIYCKMRDISFDGGLMLEYQRLYATFDEFPPP
chain 2: MAGLGKPYTGHPGDAFEGLVQRIRLIVPSTLRGGAGAAGPYSPSSLPSRCAFQFHGHDGSDESFPIEYVLRLMNDWAEVPCNPYLRIQNTGVSVLFQGFFHRPHNAPGGAITPERTNVILGSTETTGLSLGDLDTIKGRLGLDARPMMASMWISCFVRMPRVQLAFRFMGPEDAGRTRRILCRAAEQAITRRRRTRRSREAYGAEAGLGVAGTGFRARGD
On to B6, for which, in data set [3], the binding result is given as “binds”.

B7: NEC220-SUP_(UL31) (UL31 1-306 R229L with UL34 1-220) (complex)
chain 1: MYDTDPHRRGSRPGPYHGKERRRSRSSAAGGTLGVVRRASRKSLPPHARKQELCLHERQRYRGLFAALAQTPSEEIAIVRSLSVPLVKTTPVSLPFCLDQTVADNCLTLSGMGYYLGIGGCCPACNAGDGRFAATSREALILAFVQQINTIFEHRAFLASLVVLADRHNAPLQDLLAGILGQPELFFVHTILRGGGACDPRLLFYPDPTYGGHMLYVIFPGTSAHLHYLLIDRMLTACPGYRFVAHVWQSTFVLVVRRNAEKPTDAEIPTVSAADIYCKMRDISFDGGLMLEYQRLYATFDEFPPP
chain 2: MAGLGKPYTGHPGDAFEGLVQRIRLIVPSTLRGGDGEAGPYSPSSLPSRCAFQFHGHDGSDESFPIEYVLRLMNDWAEVPCNPYLRIQNTGVSVLFQGFFHRPHNAPGGAITPERTNVILGSTETTGLSLGDLDTIKGRLGLDARPMMASMWISCFVRMPRVQLAFRFMGPEDAGRTRRILCRAAEQAITRRRRTRRSREAYGAEAGLGVAGTGFRARGD
With B7, the binding result in data set [3] is “binds”.

B8: HSV-1 UL34 residues 1-220 with K137A (domain or fragment)
chain: MAGLGKPYTGHPGDAFEGLVQRIRLIVPSTLRGGDGEAGPYSPSSLPSRCAFQFHGHDGSDESFPIEYVLRLMNDWAEVPCNPYLRIQNTGVSVLFQGFFHRPHNAPGGAITPERTNVILGSTETTGLSLGDLDTIAGRLGLDARPMMASMWISCFVRMPRVQLAFRFMGPEDAGRTRRILCRAAEQAITRRRRTRRSREAYGAEAGLGVAGTGFRARGD
As for B8, the binding result in data set [4] and in data set [5] was “binds” in each case.

B9: HSV-1 UL34 residues 1-220 with R139A (domain or fragment)
chain: MAGLGKPYTGHPGDAFEGLVQRIRLIVPSTLRGGDGEAGPYSPSSLPSRCAFQFHGHDGSDESFPIEYVLRLMNDWAEVPCNPYLRIQNTGVSVLFQGFFHRPHNAPGGAITPERTNVILGSTETTGLSLGDLDTIKGALGLDARPMMASMWISCFVRMPRVQLAFRFMGPEDAGRTRRILCRAAEQAITRRRRTRRSREAYGAEAGLGVAGTGFRARGD
For the molecule B9, in data set [4], the binding result is on record as “binds”.

B10: HSV-1 UL34 residues 1-220, wild type (domain or fragment)
chain: MAGLGKPYTGHPGDAFEGLVQRIRLIVPSTLRGGDGEAGPYSPSSLPSRCAFQFHGHDGSDESFPIEYVLRLMNDWAEVPCNPYLRIQNTGVSVLFQGFFHRPHNAPGGAITPERTNVILGSTETTGLSLGDLDTIKGRLGLDARPMMASMWISCFVRMPRVQLAFRFMGPEDAGRTRRILCRAAEQAITRRRRTRRSREAYGAEAGLGVAGTGFRARGD
As to B10, the binding result in data set [6] is recorded as “binds”.

B11: HSV-1 UL34 residues 1-220 with K137A/R139A (domain or fragment)
chain: MAGLGKPYTGHPGDAFEGLVQRIRLIVPSTLRGGDGEAGPYSPSSLPSRCAFQFHGHDGSDESFPIEYVLRLMNDWAEVPCNPYLRIQNTGVSVLFQGFFHRPHNAPGGAITPERTNVILGSTETTGLSLGDLDTIAGALGLDARPMMASMWISCFVRMPRVQLAFRFMGPEDAGRTRRILCRAAEQAITRRRRTRRSREAYGAEAGLGVAGTGFRARGD
Consider B11, for which the binding result in data set [4] and in data set [5] was “binds” each time.
